The values that follow come from US20260152555A1 (HUAHUI HEALTH, published 2026).

Residue numbers refer to the chain shown, from its start. Names and notes keep the numbering of the source.

One assay addresses T1, hCD112R-ECD-mFc WT (human; mouse, UniProt Q6DKI7 42-172).
T1 construct: range 42-172; also called WT hCD112R; wildtype (WT) hCD112R protein; not shown: Fc domain of mouse IgG2a
T1 sequence (looked up): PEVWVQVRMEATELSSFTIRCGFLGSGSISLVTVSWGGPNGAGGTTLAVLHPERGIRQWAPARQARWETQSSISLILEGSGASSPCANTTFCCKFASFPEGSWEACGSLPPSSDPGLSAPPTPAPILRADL
Nature of the assay: SPR (Biacore T200), multi-cycle; H733-hIgG4 captured on anti-hFc Ab, hCD112R-ECD-mFc WT injected (3.125-100 nM); 1:1 Langmuir [Cont') B]. On the procedure:
(§1) Kinetic analyses of the bindings of WT or mutated hCD112R-ECD-mFc proteins to H733 and hCD112-ECD were performed on a Biacore T200 instrument (Biacore, GE Healthcare). For the single-cycle SPR analysis, anti-mFc Ab (Thermo Fisher) was covalently attached to surfaces of a CM5 sensor chip using an amine coupling kit (GE Healthcare). WT or mutated hCD112R-ECD mFc fusion proteins were captured on the chip and H733-hIgG4 or hCD112-ECD-hFc were then injected. For the multi-cycle SPR analysis, anti-hFc Ab (Thermo Fisher) was covalently attached to surfaces of a CM5 sensor chip using an amine coupling kit (GE Healthcare). H733-hIgG4 or hCD112-ECD-hFc protein was captured on the chip and 2-fold serially diluted WT or mutated hCD112R-ECD-mFc proteins (3.125-100 nM) were then injected. Binding kinetics were evaluated using a 1:1 Langmuir binding model. The association rates (ka), dissociation rates (kd), and affinity constants (KD) were calculated using Biacore T200 evaluation software.
In general terms: In SPR one partner is held on a chip, and binding of the other changes the refractive index at the surface.

Assay [1] has as its target V90A, W100A, or E145A mutation of hCD112R (hCD112R-ECD-mFc variants, as a group). Nature of the assay: SPR, multi-cycle, H733-hIgG4 captured by anti-hFc Ab, hCD112R-ECD-mFc variants as analytes (3.125-100 nM).
The target in assay [2] is T2, human CD112R, full length, expressed on cells (YTS-hCD112R; Jurkat-NFAT-luc-hCD112R) (human, UniProt Q6DKI7 42-326).
T2 sequence (looked up): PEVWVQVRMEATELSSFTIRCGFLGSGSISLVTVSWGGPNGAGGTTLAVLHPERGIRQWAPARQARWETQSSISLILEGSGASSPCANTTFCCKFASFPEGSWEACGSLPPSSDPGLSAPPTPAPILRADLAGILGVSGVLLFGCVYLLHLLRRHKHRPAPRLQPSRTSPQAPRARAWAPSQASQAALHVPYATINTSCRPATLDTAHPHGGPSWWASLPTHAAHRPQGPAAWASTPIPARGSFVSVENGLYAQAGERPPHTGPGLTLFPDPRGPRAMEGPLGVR
Briefly: cell-based or functional assay.

For assay [3], the target named is T3, hCD112R-ECD-His6-Avi (human, UniProt Q6DKI7 42-172, biotinylated (Avi tag) in the ELISA assays).
T3 construct: range 42-172; Expressed in HEK 293F cells; Analyte in SPR, and captured on streptavidin in ELISA; also called biotinylated hCD112R-ECD-His6-Avi; not shown: C-terminal His6-Avi tag
T3 sequence (looked up): T1 sequence (looked up)
Briefly: SPR (Biacore T200), multi-cycle; H733 captured on anti-hFc Ab, hCD112R-ECD-His6-Avi injected; 1:1 Langmuir [Cont') B]. Here is the method: (§2) Anti-hFc Ab (Thermo Fisher) was covalently attached to surfaces of a CM5 sensor chip using an amine coupling kit (GE Healthcare). Abs at optimal concentrations were captured on the chip and the analytes (hCD112R-ECD-His₆-Avi) at single concentration or serial dilutions were then injected. Binding kinetics were evaluated using a 1:1 Langmuir binding model. The association rates (ka), dissociation rates (kd), and affinity constants (KD) were calculated using Biacore T200 evaluation software.

Assay [4] has as its target T4, hCD112R-ECD-mFc V90A variant (human; mouse, UniProt Q6DKI7 42-172).
T4 construct: range 42-172; also called V90A mutation of hCD112R; not shown: Fc domain of mouse IgG2a
T4 sequence (looked up): T1 sequence (looked up) with V49A
Nature of the assay: SPR (Biacore T200), multi-cycle; H733-hIgG4 captured on anti-hFc Ab, hCD112R-ECD-mFc variant injected (3.125-100 nM); 1:1 Langmuir [Cont') B]. On the procedure: as §1

The next assay addresses T5, E94A (human, UniProt Q6DKI7).
T5 construct: extracellular domain, amino acids 42-172; alanine-scanning variant; also called hCD112R-ECD-mFc E94A variant
T5 sequence (Fc fusion chain, looked up): T1 sequence (looked up) with E53A
The assay is described as above. On the procedure:
as §1

For a further assay, the target named is T6, K135A (human, UniProt Q6DKI7).
T6 construct: extracellular domain, amino acids 42-172; alanine-scanning variant; also called hCD112R-ECD-mFc K135A variant
T6 sequence (Fc fusion chain, looked up): T1 sequence (looked up) with K94A
The assay is described as above. Here is the method:
as §1

Assay [5] concerns the target T3, hCD112R-ECD-His6-Avi. Briefly: SPR (Biacore T200), multi-cycle, H733 captured by anti-hFc Ab, hCD112R-ECD-His6-Avi as analyte, 1:1 Langmuir model. Here is the method:
as §2

B1: H733 (humanized Ab composed of 733-VH-humanV2 and 733-VL-human-C91S) (antibody, human IgG4, V domains shown)
VH: QVQLVQSGAEVKKPGASVKVSCKASGYTFTNYLIEWVRQAPGQGLEWMGVINPGHGFTNYAQKFQGRVTMTRDTSTSTVYMELSSLRSEDTAVYYCARGEWDWYFDVWGQGTTVTVSS
VL: DIQLTQSPSFLSASVGDRVTITCKASQNVGTAVAWYQQKPGKAPKLLIYSTSNRYTGVPSRFSGSGSGTEFTLTISSLQPEDFATYYCQQSSSYPFTFGGGTKVEIK
notes: also called H733-hIgG4; H733 mAb (hIgG4 form)
Consider B1, for which the Kd (in general, the concentration at which binding is half-saturated) in the assay with hCD112R-ECD-mFc WT was 0.333 nM; in assay [4], 2.01 nM; with E94A, 0.533 nM; with K135A it was 0.847 nM; with hCD112R-ECD-His6-Avi [5] it was 0.65 nM. In addition, the koff (commonly the first-order rate constant of dissociation) turned out to be 0.000364 s⁻¹ with hCD112R-ECD-mFc WT; 0.000865 s⁻¹ with hCD112R-ECD-His6-Avi [3]; 0.000475 s⁻¹ in assay [4]; 0.000573 s⁻¹ with E94A; 0.000412 s⁻¹ with K135A. Also, the kon (in general, the rate constant with which the complex forms) stood at 1.1e+06 M⁻¹ s⁻¹ with hCD112R-ECD-mFc WT; 1.33e+06 M⁻¹ s⁻¹ with hCD112R-ECD-His6-Avi [3]; 237000 M⁻¹ s⁻¹ in assay [4]; 1.08e+06 M⁻¹ s⁻¹ in the assay with E94A; 487000 M⁻¹ s⁻¹ in the assay with K135A. The fold decrease of binding as compared with WT hCD112R in assay [1] was in the range of 4 to 15 fold. Moreover, the “EC50 of luciferase production, Jurkat-NFAT-luc-hCD112R reporter cells with CHO-OKT3scFv_hCD112 cells” value in assay [2] came to 0.39 µg/mL.
